The target in data set [1] is T1, PAX3::FOXO1 fusion protein (UniProt P23760 1-391+Q12778:211-655, internal_change). Briefly: SPR; SPR, Biacore T-200, CM5 chip; PBS-P (20 mM phosphate pH 7.4, 137 mM NaCl, 2.7 mM KCl, 0.05% P20) stated as immobilization running buffer, with 5% DMSO for small molecules; temperature not stated. The settings on record: protein: recombinant; tags: C-terminal 12xHis; N-terminal internal HA tag; blunt. (Surface plasmon resonance follows binding to a sensor surface in real time, without labels.)
T1 sequence (P23760 other isoform, or with tags, fused parts or gaps): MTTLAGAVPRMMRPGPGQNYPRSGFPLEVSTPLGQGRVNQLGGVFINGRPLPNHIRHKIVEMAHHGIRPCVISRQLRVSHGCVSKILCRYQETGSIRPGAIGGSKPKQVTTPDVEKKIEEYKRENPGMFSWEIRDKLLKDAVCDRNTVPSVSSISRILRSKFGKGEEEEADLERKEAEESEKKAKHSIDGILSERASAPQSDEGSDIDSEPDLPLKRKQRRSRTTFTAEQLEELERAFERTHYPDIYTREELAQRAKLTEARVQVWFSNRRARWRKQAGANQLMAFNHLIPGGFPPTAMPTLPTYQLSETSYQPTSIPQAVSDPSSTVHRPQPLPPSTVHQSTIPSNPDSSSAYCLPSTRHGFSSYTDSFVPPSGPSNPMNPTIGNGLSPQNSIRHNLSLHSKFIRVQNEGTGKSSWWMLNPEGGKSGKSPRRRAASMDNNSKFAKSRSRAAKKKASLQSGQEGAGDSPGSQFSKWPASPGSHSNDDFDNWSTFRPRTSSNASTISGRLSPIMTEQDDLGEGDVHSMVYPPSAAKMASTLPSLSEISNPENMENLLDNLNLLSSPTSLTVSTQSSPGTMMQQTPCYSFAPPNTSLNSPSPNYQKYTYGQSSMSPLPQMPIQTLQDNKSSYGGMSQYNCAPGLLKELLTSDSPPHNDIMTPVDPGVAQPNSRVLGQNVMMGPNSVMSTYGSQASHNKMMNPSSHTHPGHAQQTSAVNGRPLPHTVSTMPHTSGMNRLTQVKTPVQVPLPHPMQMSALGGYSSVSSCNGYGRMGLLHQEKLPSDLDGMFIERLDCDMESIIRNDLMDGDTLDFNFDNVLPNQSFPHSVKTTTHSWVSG

The target of data set [2] is T1, PAX3::FOXO1 fusion protein. Nature of the data set: SPR; DNA 1.25-80 nM; SPR, Biacore T-200, CM5 chip; PBS-P (20 mM phosphate pH 7.4, 137 mM NaCl, 2.7 mM KCl, 0.05% P20) stated as immobilization running buffer, with 5% DMSO for small molecules; temperature not stated. Particulars: protein: recombinant; tags: C-terminal 12xHis; N-terminal internal HA tag; blunt.

B1: PAX3::FOXO1-specific oligonucleotide (dsDNA)
DNA 1: ACCGTGACTAATTTAATTAGTCACG
DNA 2: CGTGACTAATTAAATTAGTCACGGT
On to B1, for which, in data set [1], the Kd was determined as 6.3 nM.

B2: EWS::FLI1-specific oligonucleotide (GGAA repeats) (dsDNA)
DNA 1: ACCGGAAGGAAGGAAGGAAGGAAGGAAGGAAGTG
DNA 2: CACTTCCTTCCTTCCTTCCTTCCTTCCTTCCGGT
For the molecule B2, the binding result in data set [2] was “no binding”.

In general, Kd refers to the free concentration of one partner at which half of the binding sites on the other are occupied at equilibrium, for simple one-to-one binding.

The values above are taken from article PMC10557868, “Piperacetazine Directly Binds to the PAX3::FOXO1 Fusion Protein and Inhibits Its Transcriptional Activity”.
